The source of these data is publication PMC8173106, “Modulating Enzyme Function via Dynamic Allostery within Biliverdin Reductase B” (Frontiers in Molecular Biosciences, 2021).

Substrate in this data set: Cc1cc2nc3c(=O)[nH]c(=O)nc-3n(C[C@H](O)[C@H](O)[C@H](O)COP(=O)(O)OP(=O)(O)OC[C@H]3O[C@@H](n4cnc5c(N)ncnc54)[C@H](O)[C@@H]3O)c2cc1C
Nature of the data set: purified protein. The format is biochemical, Homo sapiens. The following applies: co-substrate NADPH.

Broadly, the Km is the concentration of substrate that gives half-maximal velocity. The kcat is the maximal rate divided by the concentration of active sites.

B1: human BLVRB (biliverdin reductase B) (Homo sapiens; S111A) (protein)
chain: MAVKKIAIFGATGQTGLTTLAQAVQAGYEVTVLVRDSSRLPSEGPRPAHVVVGDVLQAADVDKTVAGQDAVIVLLGTRNDLSPTTVMSEGARNIVAAMKAHGVDKVVACTAAFLLWDPTKVPPRLQAVTDDHIRMHKVLRESGLKYVAVMPPHIGDQPLTGAYTVTLDGRGPSRVISKHDLGHFMLRCLTTDEYDGHSTYPSHQYQ
notes: full length, 206 residues; codon-optimised, pET21b (T164S in pJ401k); N-terminal 6xHis tag removed with thrombin
B1: the Km came to 325 ± 96 µM and the kcat turned out to be 0.021 ± 0.004 s⁻¹.

B2: human BLVRB (biliverdin reductase B) (Homo sapiens; H153A) (protein)
chain: MAVKKIAIFGATGQTGLTTLAQAVQAGYEVTVLVRDSSRLPSEGPRPAHVVVGDVLQAADVDKTVAGQDAVIVLLGTRNDLSPTTVMSEGARNIVAAMKAHGVDKVVACTSAFLLWDPTKVPPRLQAVTDDHIRMHKVLRESGLKYVAVMPPAIGDQPLTGAYTVTLDGRGPSRVISKHDLGHFMLRCLTTDEYDGHSTYPSHQYQ
notes: as for B1
As for B2, the Km is 98 ± 11 µM and the kcat came to 0.059 ± 0.003 s⁻¹.

B3: human BLVRB (biliverdin reductase B) (Homo sapiens; T164I) (protein)
chain: MAVKKIAIFGATGQTGLTTLAQAVQAGYEVTVLVRDSSRLPSEGPRPAHVVVGDVLQAADVDKTVAGQDAVIVLLGTRNDLSPTTVMSEGARNIVAAMKAHGVDKVVACTSAFLLWDPTKVPPRLQAVTDDHIRMHKVLRESGLKYVAVMPPHIGDQPLTGAYIVTLDGRGPSRVISKHDLGHFMLRCLTTDEYDGHSTYPSHQYQ
notes: as for B1
Turning to B3, the Km amounted to 156 ± 18 µM and the kcat came to 0.049 ± 0.003 s⁻¹.

B4: human BLVRB (biliverdin reductase B) (Homo sapiens; T164A) (protein)
chain: MAVKKIAIFGATGQTGLTTLAQAVQAGYEVTVLVRDSSRLPSEGPRPAHVVVGDVLQAADVDKTVAGQDAVIVLLGTRNDLSPTTVMSEGARNIVAAMKAHGVDKVVACTSAFLLWDPTKVPPRLQAVTDDHIRMHKVLRESGLKYVAVMPPHIGDQPLTGAYAVTLDGRGPSRVISKHDLGHFMLRCLTTDEYDGHSTYPSHQYQ
notes: as for B1
Regarding B4, the Km is 153 ± 18 µM and the kcat is 0.063 ± 0.002 s⁻¹.

B5: human BLVRB (biliverdin reductase B) (Homo sapiens; T164S) (protein)
chain: MAVKKIAIFGATGQTGLTTLAQAVQAGYEVTVLVRDSSRLPSEGPRPAHVVVGDVLQAADVDKTVAGQDAVIVLLGTRNDLSPTTVMSEGARNIVAAMKAHGVDKVVACTSAFLLWDPTKVPPRLQAVTDDHIRMHKVLRESGLKYVAVMPPHIGDQPLTGAYSVTLDGRGPSRVISKHDLGHFMLRCLTTDEYDGHSTYPSHQYQ
notes: as for B1
In the case of B5, the Km amounted to 127 ± 15 µM and the kcat was found to be 0.039 ± 0.003 s⁻¹.
